Source: the nanobody polyreactivity screen of Harvey et al. (2022)

test: yeast display, Sf9 membrane polyspecificity reagent, FACS + sequencing; frameworks hold sequencing errors
Method in brief: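 Synthetic nanobody libraries on Saccharomyces cerevisiae BJ5465 were galactose-induced for 36–48 hours, stained 1 hour at 4 °C with 10% biotinylated, detergent-solubilized Sf9 membrane reagent and enriched on streptavidin microbeads. FACS then separated cells into low and high (top ~1%) gates by anti-HA (expression) and streptavidin (reagent binding) fluorescence. Genes were colony-PCR amplified, MiSeq 2 × 250 sequenced and CDR-length filtered. A clone's polyreactivity label is that of its gate of origin.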

Row | Sequence | polyreactivity (PSR sort gate)
1 | QVQLVESGGGLVQAGGSLRLSCAASGSTFRAYAMGWYRQAPGTEWELVAAISAGGSTNYADSVKGRFTISRDHAKNTVSLQMNCLKRDDTAVYYCAKGWYYVSPYGYRKRVYYWGQGTQVTVSS | high polyreactivity
2 | QVQLVESGGGLVQAGGSLRLSCAASGSTFRDYAMGWSRQAPGKERELVAVISSSGSRTNYADSVKGRFTISRDNAKNTVYLQMNSLKREDTAVYYCAADTTRRAPGYYYWGQGTQVTVSS | high polyreactivity
3 | QVQLVESGGGLVQAGGSLRLSCAASGSTFREYAMGWYIQAPGKERELVAAITSRGGSTYYADSVKGRFTISRDNAKNTVYLQMNSLKPEDTAVYYCAADHGTKAEYYYWGQRTQVTVSS | high polyreactivity
4 | QVQLVESGGGLVQAGGSLRLSCAASGSTFRFYAMGWYRQAPGKERELVAAISSGGSTNYADSVKGRFTISRDNAKNTVYLQMNSLKPEDTAVYYCNAEDYNGRQYYHKMDYWGQGTQVTVSS | high polyreactivity
5 | QVQLVESGGGLVQAGGSLRLSCAASGSTFRGNAMGWSRQAPGKERELVAAISSSGGSTYYADSVKGRFTISRDNAKNTVYLQMNSLKPEDTAVYYCAALYHWTYDYWGQGTQVTVSS | low polyreactivity
6 | QVQLVESGGGLVQAGGSLRLSCAASGSTFRGYAMGWYRKATGKERELVATNSGSDGTTYYADSVKGRFTISRENAKNTVYLQMNSLKPEDTAVYYCAAGETFEMYYWGQGTQVTVSS | low polyreactivity
7 | QVQLVESGGGLVQAGGSLRLSCAASGSTFRGYAMGWYRQAPGKEREFVAAITYTGSSTTYADSVKGRFTISRDNAKNTVYLQMNSLKPEDTAVYYCNKYTRFASSNMYYWGQGTQVTVSS | high polyreactivity
8 | QVQLVESGGGLVQAGGSLRLSCAASGSTFRGYAMGWYRQAPGKERELVAAISWSAGSTYYADSVKGRFTISRDNAKNTVYLQMNRLKPEDTAVYYCAKASVALRYFSYSLGRDYWGQGTQVTVSS | low polyreactivity
9 | QVQLVESGGGLVQAGGSLRLSCAASGSTFRGYAMGWYRQAPGKERELVAAITGSGDRTRYADSVKGRFTISRDNAKNTVYIQMNSLKPEDTAVYYCAKFCPHWAYYSWGQGTQVTVSS | high polyreactivity
10 | QVQLVESGGGLVQAGGSLRLSCAASGSTFRGYAMGWYRQAPGKERELVAAITSSGGSTYYADSVKGRFTISRDNAKNTVYLQMNSLKPEDTAVYYCAAEGGYWYTITYSYWLDYWGQGTQVTVSS | low polyreactivity
11 | QVQLVESGGGLVQAGGSLRLSCAASGSTFRGYTMGWYRQAPGKERELVATISYRSGSTSYADSVKGRFTISRDNAKNTVYLQMNSLKPEDTAVYYCNRVYSKPRYYYWGQGTQVTVSS | high polyreactivity
12 | QVQLVESGGGLVQAGGSLRLSCAASGSTFRHNAMGRYRPAPGKERELVAAITRSGGRTFYADSVKGRFTISRDNAKNTVYLQMNSLKPEDTAVYYCAAERITPYDSSSAYDYWGQGTQVTVSS | low polyreactivity
13 | QVQLVESGGGLVQAGGSLRLSCAASGSTFRIYAMGWYRQAPGKDRELVAGITRRGGSTFYADSVKGRFTISRDNANNTVYLQMNSLKPEDTAVYYCAARFRGGMDYWGQGTQVTVSS | high polyreactivity
14 | QVQLVESGGGLVQAGGSLRLSCAASGSTFRIYAMGWYRQAPGKERELVAAISRSGGSTYYADSVKGRFTISRDNAKNTVYLQMNSLKPEDTAVYYCAAQPSYRYYKSYDYWGQGTQVTVSS | high polyreactivity
15 | QVQLVESGGGLVQAGGSLRLSCAASGSTFRIYAMGWYRQAPGKERELVAAISSGGRTNYADSVKGRFTISRDNAKNTVYLQMNSLKPEDTAVYYCNAVFLPTYHFDYWGQGTQVTVSS | high polyreactivity
16 | QVQLVESGGGLVQAGGSLRLSCAASGSTFRIYVMGWYRQAPGKEREFVAAISRGGGSTYYADSVKGRFTISRDNAKNTVYLQMNSLKPVDTAVYYCAAVTRDYGSRSGLDYWGQGTQVTVSS | high polyreactivity
17 | QVQLVESGGGLVQAGGSLRLSCAASGSTFRKYAMGWYRHAPGKEREFVAAITWSTGTTYYADSVKGRFTISRDHAKNTVYLQMNSLKPEDTAVYDCAADSQPPHELYESIEHESWGQGTQVTVSS | low polyreactivity
18 | QVQLVESGGGLVQAGGSLRLSCAASGSTFRKYAMGWYRQAPGKERELVAAISRGGTSTYYADSVKGRFTISRDNAKNTVYLQMNSLKPEDTAVYYCRYFRYSYGTKYDYWGQGTQVTVSS | high polyreactivity
19 | QVQLVESGGGLVQAGGSLRLSCAASGSTFRLNAMGWYRQAPGKERELVAAISWTGGSTYYADSVKGRFTISRDNAKNTVSLQMNSLKPEDSAVYYCATVSYYDRYDYDYWGQGTQVTVSS | low polyreactivity
20 | QVQLVESGGGLVQAGGSLRLSCAASGSTFRLYAMGWYRQAAGKERELVAAISYSGGSTYYADSVKGRFTISRDTAKNTVYLQMNSLKPEETAVYYCNAVRRHGGYYDYGYWGQGTQVTVSS | high polyreactivity
21 | QVQLVESGGGLVQAGGSLRLSCAASGSTFRLYAMGWYRQAPGKERELVAAISSRGGSTYYADSVKGRFTISRDNAKNTVYLQMNSLKPEDTAVYYCATDYITPSSEGDYWGQGTQVTVTS | high polyreactivity
22 | QVQLVESGGGLVQAGGSLRLSCAASGSTFRNAMGWYRQAPGKERELVAAISYSGGRTYYADSVKGRFTISRDNAKNTVYLQMNSLKPEDTAVYYCASPGVSWSTRSYYYWGQGTQVTVSS | high polyreactivity

Row | Sequence | polyreactivity (PSR sort gate)
23 | QVQLVESGGGLVQAGGSLRLSCAASGSTFRNYAMGWYRQAPGKERELVAAITKRGGTTYYADSVKGRFTISRDNAKNTCYLQMNSLKPEDTAVYYCATGYNSSPFDYWGQGTQVTVSS | high polyreactivity
24 | QVQLVESGGGLVQAGGSLRLSCAASGSTFRNYAMGWYRQAPGKERELVAAITKRGGTTYYADSVKGRFTISRDNAKNTVYLQMNSLKPEDTAVYYCATRQLSKVKDMDYWGQGTQVTVSS | high polyreactivity
25 | QVQLVESGGGLVQAGGSLRLSCAASGSTFRPNAMGWYRQAPGTERELVAAITSGGSTYYADSVKGRFTISRDNAKNTVYLQMNRLKPEDTAVYYFNKDKFWSYPVQVNLDYWGQGTQVTVSS | low polyreactivity
26 | QVQLVESGGGLVQAGGSLRLSCAASGSTFRPYAKGWYRQAPGKERELVAAISNGGNTNYADSVKGRFSISRDNAKNTVYLQMNSLIPEDTAFYYCAKTFRGQPYLRYRYYYWGQGTQVTVSS | high polyreactivity
27 | QVQLVESGGGLVQAGGSLRLSCAASGSTFRPYAMGWYRQAPGKERELVAAITFNGDTYADSVKGRFTISRDNAKNTVYLQMNSLKPEDTAVYYCNAESVSSPPYYDYWGQGTQVTVSS | high polyreactivity
28 | QVQLVESGGGLVQAGGSLRLSCAASGSTFRQYAMGWYRQAPGKERELVAAINWSGSSTYYADSVKGRFTISRDNAKNTVYLQMNSLKPDDTAVYYCAAVVQYWWWKGRGYWGQGTQVTVSS | high polyreactivity
29 | QVQLVESGGGLVQAGGSLRLSCAASGSTFRRNAMGWYRKAPGKERELVAAISSTGGSTRYADSVKGRFTISRDNAKNTVYLQMNSLKPEDTAVYYCAARFSASGSFYYWGQGTQVTVSS | high polyreactivity
30 | QVQLVESGGGLVQAGGSLRLSCAASGSTFRRNAMGWYRQAPGKERELVAAISRGGNTKYADSVKGGFTISRDNAKNTVYLQKNSLKPEDTAVYYCATYYFSSSHLYGYWGQGTQVTVSS | high polyreactivity
31 | QVQLVESGGGLVQAGGSLRLSCAASGSTFRRNAMGWYRQAPGKERELVAAITRRGTSTYYADSVKGRFTISRDNAKNTVYLQMNSLKPEDTAVYYCNAPRPYQDGKFGYWGQGTQVTVSS | high polyreactivity
32 | QVQLVESGGGLVQAGGSLRLSCAASGSTFRRYAMGWYRQAPGKERELVAAISSSGDSTYYADSVKGRFTISRDNAKNTVYLQMNSLKPEDTAVYYCATRLRQVYRSQSSGYDYWGQGTQVTVSS | low polyreactivity
33 | QVQLVESGGGLVQAGGSLRLSCAASGSTFRSYAMGWNRQAPGKERELVAAISGRGGNTYYADSVKGRFTISRDNAKNTVYLLMNSLKPEDTAVYYCARKTVYYGSDYWGQGTQVTVSS | high polyreactivity
34 | QVQLVESGGGLVQAGGSLRLSCAASGSTFRSYAMGWYIQAPGKERELVARISYRTGSTYYADSVKGRFTISRDNAKNTVYLQMNSLKPEDTAVYYCATRGSYVGGLYDYWGQGTQVTVSS | high polyreactivity
35 | QVQLVESGGGLVQAGGSLRLSCAASGSTFRSYAMGWYRQAPGKERELVARISYRTGSTYYADSVKGRFTISRDNAKNTVYLQMNSLKPEDTAVYYCATRGSYVGGLYDYWGQGTQVTVSS | high polyreactivity
36 | QVQLVESGGGLVQAGGSLRLSCAASGSTFRTNAMGWYRQAPGKERELVADISKRGGNTYYADSVKGRFTISRDNAKNTVYLQMNCLKPEDTALYDCAAYRVYGYGGGYDYYYWVQGTQVTVSS | high polyreactivity
37 | QVQLVESGGGLVQAGGSLRLSCAASGSTFRVYAMGWYRQATVKERELVAAISGSGGSTYYADSVKGRFTISRYNAKNSVYLQMNSLKPEDTAVYYCAARSWYTEYYWGQGTQVSVSS | high polyreactivity
38 | QVQLVESGGGLVQAGGSLRLSCAASGSTFRVYVMGWYRQAPGKERELVAAISQRGGSTYYADSVKGRFTISRDNAKNTVYLQMNSLKPEDTAVYYCAADQPGARTWSNRESDYWGQGTQVTVSS | high polyreactivity
39 | QVQLVESGGGLVQAGGSLRLSCAASGSTFRWNAMGWYRQAPGKERELVAAISWSGGTTYYADSVKGRFTISRDNAKNTVYLQMNSLKPEDTAVYYCAARTLWQGYWGQGTQVTVSS | high polyreactivity
40 | QVQLVESGGGLVQAGGSLRLSCAASGSTFRWNAMGWYRQAPGKERELVAAITWSGGSTYYADSVKGRFTISRDNAKNTVYLQMNSLKPEDTAVYYCNAGGLFQYDSWGQGTQVTVSS | low polyreactivity
41 | QVQLVESGGGLVQAGGSLRLSCAASGSTFRWNAMGWYRQAPGKERELVATITWGGGSTYYADSVKGRFTISRDNAKNTVYLQMNSLKPEDTAVYYCARRKRARYSYYQYNYWGQGTQVTVSS | high polyreactivity
42 | QVQLVESGGGLVQAGGSLRLSCAASGSTFRYNAMGWYIQAPGKERELVAAITSTGDSTYYADSVKGRFTISRDNAKNTVYLQMNSLKPEYTAVYYCAARSYASPGWRYEYWGQGTQVTVSS | low polyreactivity
43 | QVQLVESGGGLVQAGGSLRLSCAASGSTFRYNAMGWYRQAPGKERELVAAITSTGDSTYYADSVKGRFTISRDNAKNTVYLQMNSLKPEVTAVYYCAARSYASPGWRYEFWGQGTQVTVSS | low polyreactivity
